Test results: article PMC3230775 (Nature structural & molecular biology, 2011)

B1: p130Cas C-terminal domain (residues 645-870) (domain or fragment)
chain: SQDSPDGQYENSEGGWMEDYDYVHLQGKEEFEKTQKELLEKGSITRQGKSQLELQQLKQFERLEQEVSRPIDHDLANWTPAQPLAPGRTGGLGPSDRQLLLFYLEQCEANLTTLTNAVDAFFTAVATNQPPKIFVAHSKFVILSAHKLVFIGDTLSRQAKAADVRSQVTHYSNLLCDLLRGIVATTKAAALQYPSPSAAQDMVERVKELGHSTQQFRRVLGQLAAA

How the values were obtained:
[1] = biological target: p130Cas C-terminal domain (residues 645-870) (human) (UniProt P56945); experiment: crystal structure
[2] = biological target: T1, BCAR3 C-terminal domain (residues 502-825) (human, UniProt O75815 502-825); experiment: ITC
T1 sequence: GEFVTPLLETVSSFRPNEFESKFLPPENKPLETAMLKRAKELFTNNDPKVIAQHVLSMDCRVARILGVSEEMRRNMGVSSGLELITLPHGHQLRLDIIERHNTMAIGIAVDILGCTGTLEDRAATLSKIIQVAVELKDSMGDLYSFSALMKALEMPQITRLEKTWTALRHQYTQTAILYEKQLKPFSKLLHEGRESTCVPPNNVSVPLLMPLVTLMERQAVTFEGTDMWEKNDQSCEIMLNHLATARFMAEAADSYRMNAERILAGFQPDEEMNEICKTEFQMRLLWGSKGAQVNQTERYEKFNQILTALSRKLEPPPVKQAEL

Molecule | stoichiometry N [1] | Kd [2] [nM]
NSP3 C-terminal domain (residues 382-703) (domain or fragment) | 1 | 
B1 |  | 30
